This data set concerns the target MexR (Pseudomonas aeruginosa, UniProt P52003). The data set is described as follows: ITC; one set of sites; N = 4.0 ± 0.1; dH 122.3 ± 5.2 kJ/mol; ITC: 20 mM NaPO4 pH 7.0, 150 mM NaCl, 5 mM beta-mercaptoethanol, 20 C; SEC of the complex: 20 mM HEPES, 150 mM NaCl, 2 mM TCEP. As to conditions: protein: recombinant; tags: N-terminal His6-Trx removed by TEV; residual SM; chain copies: 4; blunt.

Sequence of MexR (P52003 5-139, tags or fused parts left off): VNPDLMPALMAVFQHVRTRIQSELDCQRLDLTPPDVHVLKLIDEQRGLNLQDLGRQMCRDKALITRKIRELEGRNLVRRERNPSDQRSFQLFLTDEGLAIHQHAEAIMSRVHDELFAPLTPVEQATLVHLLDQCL

B1: 60 bp mexR-mexA operator DNA (PI+PII) (dsDNA)
DNA 1: AAATGTGGTTGATCCAGTCAACTATTTTGCTTATTTTAGTTGACCTTATCAACCTTGTTT
DNA 2: AAACAAGGTTGATAAGGTCAACTAAAATAAGCAAAATAGTTGACTGGATCAACCACATTT
For orientation: Kd means the constant that tells how readily two partners part at equilibrium. For B1, the Kd was determined as 206 ± 52 nM.
